Patent US6066780A, “Modification of lignin synthesis in plants” (Zeneca Limited, priority 1991, dated 2000)

Substrate: COc1cc(/C=C/CO)ccc1O
Assay: Kinetic characterisation of purified tobacco CAD enzyme
Type: biochemical
Conditions: other: pure enzyme purified to homogeneity from tobacco stems; specific for NADP; pH 7.5
Protocol: Six week old tobacco stems were frozen in liquid N, crushed with a hammer and homogenized in a Waring blender in buffer A. The homogenate was centrifuged at 45000×g for 30 min. Solid ammonium sulphate was added to the supernatant to bring it to 70% saturation and proteins were precipitated at 4° C. for 30 min. The precipitate was collected by centrifugation at 10,000 rpm for 1 hour. The pellet was resuspended in a minimum volume of buffer supplemented with 5% ethylene glycol, to reduce the ammonium sulphate concentration to approximately 40% saturation.
The supernatant was desalted and applied to a Blue Sepharose column. The column was washed in at least 6 column volumes buffer including one column volume supplemented with 4 mM NAD. This wash elutes other alcohol dehydrogenases. Specific elution of CAD was performed with a gradient of 0-4 mM NADP in buffer B. CAD-containing fractions were pooled and 5% ethylene glycol was added.
The pooled fractions from Blue Sepharose were applied to an FPLC Mono Q column. The column was washed until the Absorbance dropped to baseline levels. Proteins were eluted in a linear gradient of buffer with 20-400 mM Tris-HCl, pH 7.5.
MonoQ fractions were applied to a column of 2'5'ADP-Sepharose. The column was washed with 6 column volumes buffer including one column volume supplemented with 4 mM NAD. […]

B1: tobacco cinnamyl alcohol dehydrogenase (CAD, E.C. 1.1.1.195), purified from tobacco stems (Nicotiana tabacum) (protein)
chain 1: MGSLDVEKSAIGWAARDPSGLLSPYTYTLRNTGPEDVQVKVLYCGLCHSDLHQVKNDLGMSNYPLVPGHEVVGKVVEVGADVSKFKVGDTVGVGLLVGSCRNCGPCKREIEQYCNKKIWNCNDVYTDGKPTQGGFANSMVVDQNFVVKIPEGMAPEQAAPLLCAGITVYSPFNHFGFNQSGFRGGILGLGGVGHMGVKIAKAMGHHVTVISSSNKKRQEALEHLGADDYLVSSDTDKMQEAADSLDYIIDTVPVGHPLELYLSLLKIDGKLILIGVINTPLQFISPMVMLGRKSITGSFIGSMKETEEMLDFCKEKGVTSQIEIVKMDYINTAMERLEKNDVSYRFVVDVAGSKLDQ
chain 2: MGGLEVEKTTIGWAARDPSGVLSPYTYTLRNTGPEDVEVKVLYCGLCHTDLHQVKNDLGMSNYPLVPGHEVVGEVVEVGPDVSKFKVGDTVGVGLLVGSCRNCGPCKRDIEQYCNKKIWNCNDVYTDGKPTQGGFAKSMVVDQKFVVKIPEGMAPEQAAPLLCAGITVYSPLNHFGFKQSGLRGGILGLGGVGHMGVKIAKAMGHHVTVISSSNKKRQEALEHLGADDYLVSSDTDKMQEASDSLDYIIDTVPVGHPLEPYLSLLKIDGKLILMGVINTPLQFISPMVMLGRKSITGSFIGSMKETEEMLDFCKEKGVTSQIEIVKMDYINTAMERLEKNDVRYRFVVDVIGSKLDQ
notes: Using this protocol tobacco CAD was purified to homogeneity; from tissue; host or cells: stems of six week old tobacco plants
- Km: 12 µM
